Tests used:
[1] = target: T1, human CD39 expressed at the cell surface (human, UniProt P49961 1-510); assay: flow cytometry titration on CHO cells expressing human CD39 (Mediane of Fluo), panel CHO-huCD39
T1 construct: On CHO transfectants, Hek-293T transfectants, Ramos and Mino tumor cells; also called huCD39; CHO-huCD39
T1 sequence: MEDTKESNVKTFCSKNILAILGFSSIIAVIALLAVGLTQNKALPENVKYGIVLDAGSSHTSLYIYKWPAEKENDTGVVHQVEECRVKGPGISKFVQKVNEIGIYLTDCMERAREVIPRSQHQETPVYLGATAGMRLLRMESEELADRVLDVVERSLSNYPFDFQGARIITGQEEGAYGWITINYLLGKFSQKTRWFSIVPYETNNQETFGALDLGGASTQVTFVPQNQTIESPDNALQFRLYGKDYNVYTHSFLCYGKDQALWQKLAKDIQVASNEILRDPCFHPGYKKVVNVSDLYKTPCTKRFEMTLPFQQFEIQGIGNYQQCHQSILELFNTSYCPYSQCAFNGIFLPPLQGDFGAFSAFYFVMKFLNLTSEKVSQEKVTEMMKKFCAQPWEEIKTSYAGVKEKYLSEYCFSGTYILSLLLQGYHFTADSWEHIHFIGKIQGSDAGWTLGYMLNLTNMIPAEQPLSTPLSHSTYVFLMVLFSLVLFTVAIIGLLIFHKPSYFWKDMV
Description: (§1) Cells were incubated with various concentration of unlabeled anti-CD39 antibody from 30 μg/ml to 5×10⁻⁴ μg/ml, for 30 minutes at 4° C. After washes, cells were incubated with Goat anti-mouse H+L labeled secondary antibody for 30 min at 4° C.

murine CD39 on CHO cells = target: T2, murine CD39 on CHO cells (murine, UniProt P55772 1-510); assay: flow cytometry titration on CHO cells expressing murine CD39 (Mediane of Fluo), panel CHO-moCD39
T2 construct: whole, on cells; also called CHO-moCD39; moCD39
T2 sequence (looked up): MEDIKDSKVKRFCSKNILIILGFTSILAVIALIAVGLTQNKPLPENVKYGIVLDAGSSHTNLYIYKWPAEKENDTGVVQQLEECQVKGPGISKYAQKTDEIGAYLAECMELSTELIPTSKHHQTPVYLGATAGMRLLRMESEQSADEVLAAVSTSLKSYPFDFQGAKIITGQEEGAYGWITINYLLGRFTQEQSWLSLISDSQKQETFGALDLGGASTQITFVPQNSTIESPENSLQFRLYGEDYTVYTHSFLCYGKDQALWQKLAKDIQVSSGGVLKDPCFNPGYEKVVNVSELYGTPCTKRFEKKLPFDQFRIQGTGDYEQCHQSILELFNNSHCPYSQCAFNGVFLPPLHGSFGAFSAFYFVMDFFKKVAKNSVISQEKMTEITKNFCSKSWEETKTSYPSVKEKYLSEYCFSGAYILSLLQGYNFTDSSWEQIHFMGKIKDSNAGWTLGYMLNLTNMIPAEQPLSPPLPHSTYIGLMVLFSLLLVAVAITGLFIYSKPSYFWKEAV
Description: as §1

[2] = target: T1, human CD39 expressed at the cell surface; assay: flow cytometry, Ramos lymphoma cells, second set of experiments; Ramos cells, second set of experiments
Description: as §1

[3] = target: T3, Human CD39-L3, also known as NTPDase3 or ENTPD3 (human, UniProt O75355 44-485, limits assumed); assay: ELISA on coated recombinant human CD39-L3, panel huCD39 L3; no legend on the sheet, curve is I-394 by paragraph 85
T3 construct: Recombinant protein coated in ELISA
T3 sequence: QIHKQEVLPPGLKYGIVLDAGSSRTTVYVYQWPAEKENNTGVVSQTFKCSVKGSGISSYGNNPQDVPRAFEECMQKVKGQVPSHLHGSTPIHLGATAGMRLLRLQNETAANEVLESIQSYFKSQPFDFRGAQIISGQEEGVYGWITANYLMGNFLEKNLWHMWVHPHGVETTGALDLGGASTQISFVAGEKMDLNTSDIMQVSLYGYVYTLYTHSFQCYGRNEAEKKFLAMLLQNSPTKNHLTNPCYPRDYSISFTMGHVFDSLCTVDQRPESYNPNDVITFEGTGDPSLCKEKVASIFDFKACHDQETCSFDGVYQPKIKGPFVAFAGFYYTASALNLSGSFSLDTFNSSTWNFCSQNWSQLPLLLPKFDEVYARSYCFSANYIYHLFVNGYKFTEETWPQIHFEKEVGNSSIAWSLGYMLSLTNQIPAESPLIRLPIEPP
Description: (§2) Wells were washed in TBS Tween 20, and further saturated 2H at RT in TBS Blocking buffer. Dose range concentration of primary antibody was incubated in TBS blocking buffer for 2 h at RT. Wells were washed in TBS Tween 20. […] Optical density was measured on Enspire™ at OD=450.

[4] = target: T4, Human CD39-L2, also known as NTPDase6 or ENTPD6 (human, UniProt O75354 61-484, limits assumed); assay: ELISA on coated recombinant human CD39-L2, panel huCD39 L2; no legend on the sheet, curve is I-394 by paragraph 85
T4 construct: Recombinant protein coated in ELISA
T4 sequence: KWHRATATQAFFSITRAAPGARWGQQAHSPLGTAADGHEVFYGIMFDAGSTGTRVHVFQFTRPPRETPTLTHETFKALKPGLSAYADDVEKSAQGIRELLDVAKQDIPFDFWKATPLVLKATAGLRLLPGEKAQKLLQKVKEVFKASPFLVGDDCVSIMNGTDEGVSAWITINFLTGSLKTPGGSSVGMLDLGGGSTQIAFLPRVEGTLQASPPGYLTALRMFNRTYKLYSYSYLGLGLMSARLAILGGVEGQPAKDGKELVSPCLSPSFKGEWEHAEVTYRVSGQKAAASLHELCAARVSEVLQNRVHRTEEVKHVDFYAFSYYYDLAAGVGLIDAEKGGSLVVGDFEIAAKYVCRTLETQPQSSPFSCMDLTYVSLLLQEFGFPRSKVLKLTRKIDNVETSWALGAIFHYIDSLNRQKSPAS
Description: as §2

EC50 (read off the curve) [1]: ~0.2 mg/L | binding result (murine CD39 on CHO cells): no binding (tested: about 30 µg/ml) | EC50 [2]: 0.19 mg/L | binding result [3]: no binding (tested: about 50 µg/ml) | binding result [4]: no binding (tested: about 50 µg/ml)
B1: I-394 (antibody, human IgG1, V domains shown)
VH: EVQLQQSGPELVKPGASVKMSCKASGYTFTDYNMHWVKQSHGRTLEWIGYIVPLNGGSTFNQKFKGRATLTVNTSSRTAYMELRSLTSEDSAAYYCARGGTRFAYWGQGTLVTVSA
VL: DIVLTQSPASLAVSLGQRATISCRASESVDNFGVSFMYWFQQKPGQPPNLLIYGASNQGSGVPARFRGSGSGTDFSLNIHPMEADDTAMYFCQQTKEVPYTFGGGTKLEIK

From patent publication US20230025732A1 (INNATE PHARMA, published 2023)
